Laboratory results reported in patent US20250388669A1 (published 2025).

T1: B7H3 (human, UniProt Q5ZPR3 29-466, limits assumed)
T1 sequence (looked up): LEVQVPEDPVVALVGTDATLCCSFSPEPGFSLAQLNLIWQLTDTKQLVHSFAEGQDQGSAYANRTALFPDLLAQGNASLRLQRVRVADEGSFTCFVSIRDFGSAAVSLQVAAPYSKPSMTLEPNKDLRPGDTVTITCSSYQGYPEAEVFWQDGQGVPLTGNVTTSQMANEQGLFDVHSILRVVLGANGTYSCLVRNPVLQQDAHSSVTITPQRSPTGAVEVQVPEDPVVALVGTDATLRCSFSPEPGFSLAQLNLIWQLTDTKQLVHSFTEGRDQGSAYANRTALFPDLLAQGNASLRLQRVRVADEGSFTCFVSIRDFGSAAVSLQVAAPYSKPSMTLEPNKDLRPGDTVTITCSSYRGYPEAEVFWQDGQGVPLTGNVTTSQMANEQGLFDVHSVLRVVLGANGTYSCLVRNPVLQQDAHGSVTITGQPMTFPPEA

B1: Ly1612 (antibody, V domains shown)
VH: QVQLVQSGAEVKKPGASVKVSCKASGYTFTSYVMHWVRQKPGQGLEWIGYINPYNEGTESTDKFKGRATMTSDKSTSTVYMELSSLRSEDTAVYYCASIYYGYEGTYFGVWGQGTLVTVSS
VL: EIVLTQSPATLSLSPGERATLSCRASSSVSYMHWYQQKPGQAPRPWIYATSNLASGIPARFSGSRSGTDYTLTISSLEPEDFAVYYCQQWSSNTLTFGGGTKVEIK
notes: Parent mAb; also called Anti-B7H3 Ly1612; B7H3 mAb
B2: Ly2364 (other)
chain 1: QVQLVQSGAEVKKPGASVKVSCKASGYTFTSYVMHWVRQKPGQGLEWIGYINPYNEGTESTDKFKGRATMTSDKSTSTVYMELSSLRSEDTAVYYCASIYYGYEGTYFGVWGQGTLVTVSSASTKGPSVFPLAPSSKSTSGGTAALGCLVKDYFPEPVTVSWNSGALTSGVHTFPAVLQSSGLYSLSSVVTVPSSSLGTQTYICNVNHKPSNTKVDKKVEPKSCGGGGSGGGGSGGGGSGGGGSGGGGSEVQLVESGGGLVQPGGSLRLSCAASGFTFSTYAMNWVRQAPGKGLEWVGRIRSKYNNYATYYADSVKGRFTISRDDSKNSLYLQMNSLKTEDTAVYYCVRHGNFGNSYVSWFAYWGQGTLVTVSSGGGGSDKTHTCPPCPAPEAAGPSVFLFPPKPKDTLMISRTPEVTCVVVDVSHEDPEVKFNWYVDGVEVHNAKTKPREEQYNSTYRVVSVLTVLHQDWLNGKEYKCKVSNKALPAPIEKTISKAKGQPREPQVYTLPPSREEMTKNQVSLWCLVKGFYPSDIAVEWESNGQPENNYKTTPPVLDSDGSFFLYSKLTVDKSRWQQGNVFSCSVMHEALHNHYTQKSLSLSPGGGGGSGGGGSGGGGSGGGGSQVQLVQSGAEVKKPGASVKVSCKASGYTFAGFEMHWVRQAPGQGLEWMGAIDPKTGGTDYNQKFKDRVTMTRDTSISTAYMELSRLRSDDTAVYYCARDLGYFDVWGQGTLVTVSS
chain 2: QVQLVQSGAEVKKPGASVKVSCKASGYTFTSYVMHWVRQKPGQGLEWIGYINPYNEGTESTDKFKGRATMTSDKSTSTVYMELSSLRSEDTAVYYCASIYYGYEGTYFGVWGQGTLVTVSSASTKGPSVFPLAPSSKSTSGGTAALGCLVKDYFPEPVTVSWNSGALTSGVHTFPAVLQSSGLYSLSSVVTVPSSSLGTQTYICNVNHKPSNTKVDKKVEPKSCGGGGSGGGGSGGGGSGGGGSGGGGSQAVVTQEPSLTVSPGGTVTLTCRSSTGAVTTSNYANWVQQKPGQAPRGLIGGTNKRAPWTPARFSGSLLGGKAALTITGAQAEDEADYYCALWYSNLWVFGGGTKLTVLGGGGSDKTHTCPPCPAPEAAGPSVFLFPPKPKDTLMISRTPEVTCVVVDVSHEDPEVKFNWYVDGVEVHNAKTKPREEQYNSTYRVVSVLTVLHQDWLNGKEYKCKVSNKALPAPIEKTISKAKGQPREPQVYTLPPSREEMTKNQVSLSCAVKGFYPSDIAVEWESNGQPENNYKTTPPVLDSDGSFFLVSKLTVDKSRWQQGNVFSCSVMHEALHNRFTQKSLSLSPGGGGGSGGGGSGGGGSGGGGSDIQMTQSPSSLSASVGDRVTITCRASQDIRSNLNWYQQKPGGAVKLLIYYTSRLHSGVPSRFSGSGSGTDYTLTISSLQPEDFATYFCQQSEKLPRTFGGGTKVEIR
light: EIVLTQSPATLSLSPGERATLSCRASSSVSYMHWYQQKPGQAPRPWIYATSNLASGIPARFSGSRSGTDYTLTISSLEPEDFAVYYCQQWSSNTLTFGGGTKVEIKRTVAAPSVFIFPPSDEQLKSGTASVVCLLNNFYPREAKVQWKVDNALQSGNSQESVTEQDSKDSTYSLSSTLTLSKADYEKHKVYACEVTHQGLSSPVTKSFNRGEC
notes: Tri-specific antibody: B7H3 Fabs, central CD3 Fv, terminal CD137 Fv; Flexible linker is (G4S)5
B3: Ly2365 (other)
chain 1: QVQLVQSGAEVKKPGASVKVSCKASGYTFTSYVMHWVRQKPGQGLEWIGYINPYNEGTESTDKFKGRATMTSDKSTSTVYMELSSLRSEDTAVYYCASIYYGYEGTYFGVWGQGTLVTVSSASTKGPSVFPLAPSSKSTSGGTAALGCLVKDYFPEPVTVSWNSGALTSGVHTFPAVLQSSGLYSLSSVVTVPSSSLGTQTYICNVNHKPSNTKVDKKVEPKSCGGGGSGGGGSGGGGSEVQLVESGGGLVQPGGSLRLSCAASGFTFSTYAMNWVRQAPGKGLEWVGRIRSKYNNYATYYADSVKGRFTISRDDSKNSLYLQMNSLKTEDTAVYYCVRHGNFGNSYVSWFAYWGQGTLVTVSSGGGGSDKTHTCPPCPAPEAAGPSVFLFPPKPKDTLMISRTPEVTCVVVDVSHEDPEVKFNWYVDGVEVHNAKTKPREEQYNSTYRVVSVLTVLHQDWLNGKEYKCKVSNKALPAPIEKTISKAKGQPREPQVYTLPPSREEMTKNQVSLWCLVKGFYPSDIAVEWESNGQPENNYKTTPPVLDSDGSFFLYSKLTVDKSRWQQGNVFSCSVMHEALHNHYTQKSLSLSPGGGGGSGGGGSGGGGSGGGGSQVQLVQSGAEVKKPGASVKVSCKASGYTFAGFEMHWVRQAPGQGLEWMGAIDPKTGGTDYNQKFKDRVTMTRDTSISTAYMELSRLRSDDTAVYYCARDLGYFDVWGQGTLVTVSS
chain 2: QVQLVQSGAEVKKPGASVKVSCKASGYTFTSYVMHWVRQKPGQGLEWIGYINPYNEGTESTDKFKGRATMTSDKSTSTVYMELSSLRSEDTAVYYCASIYYGYEGTYFGVWGQGTLVTVSSASTKGPSVFPLAPSSKSTSGGTAALGCLVKDYFPEPVTVSWNSGALTSGVHTFPAVLQSSGLYSLSSVVTVPSSSLGTQTYICNVNHKPSNTKVDKKVEPKSCGGGGSGGGGSGGGGSQAVVTQEPSLTVSPGGTVTLTCRSSTGAVTTSNYANWVQQKPGQAPRGLIGGTNKRAPWTPARFSGSLLGGKAALTITGAQAEDEADYYCALWYSNLWVFGGGTKLTVLGGGGSDKTHTCPPCPAPEAAGPSVFLFPPKPKDTLMISRTPEVTCVVVDVSHEDPEVKFNWYVDGVEVHNAKTKPREEQYNSTYRVVSVLTVLHQDWLNGKEYKCKVSNKALPAPIEKTISKAKGQPREPQVYTLPPSREEMTKNQVSLSCAVKGFYPSDIAVEWESNGQPENNYKTTPPVLDSDGSFFLVSKLTVDKSRWQQGNVFSCSVMHEALHNRFTQKSLSLSPGGGGGSGGGGSGGGGSGGGGSDIQMTQSPSSLSASVGDRVTITCRASQDIRSNLNWYQQKPGGAVKLLIYYTSRLHSGVPSRFSGSGSGTDYTLTISSLQPEDFATYFCQQSEKLPRTFGGGTKVEIR
light: B2 light
notes: Tri-specific antibody: B7H3 Fabs, central CD3 Fv, terminal CD137 Fv; Flexible linker is (G4S)3
B4: Ly2366 (other)
chain 1: QVQLVQSGAEVKKPGASVKVSCKASGYTFTSYVMHWVRQKPGQGLEWIGYINPYNEGTESTDKFKGRATMTSDKSTSTVYMELSSLRSEDTAVYYCASIYYGYEGTYFGVWGQGTLVTVSSASTKGPSVFPLAPSSKSTSGGTAALGCLVKDYFPEPVTVSWNSGALTSGVHTFPAVLQSSGLYSLSSVVTVPSSSLGTQTYICNVNHKPSNTKVDKKVEPKSCGGGGSGGGGSEVQLVESGGGLVQPGGSLRLSCAASGFTFSTYAMNWVRQAPGKGLEWVGRIRSKYNNYATYYADSVKGRFTISRDDSKNSLYLQMNSLKTEDTAVYYCVRHGNFGNSYVSWFAYWGQGTLVTVSSGGGGSDKTHTCPPCPAPEAAGPSVFLFPPKPKDTLMISRTPEVTCVVVDVSHEDPEVKFNWYVDGVEVHNAKTKPREEQYNSTYRVVSVLTVLHQDWLNGKEYKCKVSNKALPAPIEKTISKAKGQPREPQVYTLPPSREEMTKNQVSLWCLVKGFYPSDIAVEWESNGQPENNYKTTPPVLDSDGSFFLYSKLTVDKSRWQQGNVFSCSVMHEALHNHYTQKSLSLSPGGGGGSGGGGSGGGGSGGGGSQVQLVQSGAEVKKPGASVKVSCKASGYTFAGFEMHWVRQAPGQGLEWMGAIDPKTGGTDYNQKFKDRVTMTRDTSISTAYMELSRLRSDDTAVYYCARDLGYFDVWGQGTLVTVSS
chain 2: QVQLVQSGAEVKKPGASVKVSCKASGYTFTSYVMHWVRQKPGQGLEWIGYINPYNEGTESTDKFKGRATMTSDKSTSTVYMELSSLRSEDTAVYYCASIYYGYEGTYFGVWGQGTLVTVSSASTKGPSVFPLAPSSKSTSGGTAALGCLVKDYFPEPVTVSWNSGALTSGVHTFPAVLQSSGLYSLSSVVTVPSSSLGTQTYICNVNHKPSNTKVDKKVEPKSCGGGGSGGGGSQAVVTQEPSLTVSPGGTVTLTCRSSTGAVTTSNYANWVQQKPGQAPRGLIGGTNKRAPWTPARFSGSLLGGKAALTITGAQAEDEADYYCALWYSNLWVFGGGTKLTVLGGGGSDKTHTCPPCPAPEAAGPSVFLFPPKPKDTLMISRTPEVTCVVVDVSHEDPEVKFNWYVDGVEVHNAKTKPREEQYNSTYRVVSVLTVLHQDWLNGKEYKCKVSNKALPAPIEKTISKAKGQPREPQVYTLPPSREEMTKNQVSLSCAVKGFYPSDIAVEWESNGQPENNYKTTPPVLDSDGSFFLVSKLTVDKSRWQQGNVFSCSVMHEALHNRFTQKSLSLSPGGGGGSGGGGSGGGGSGGGGSDIQMTQSPSSLSASVGDRVTITCRASQDIRSNLNWYQQKPGGAVKLLIYYTSRLHSGVPSRFSGSGSGTDYTLTISSLQPEDFATYFCQQSEKLPRTFGGGTKVEIR
light: B2 light
notes: Tri-specific antibody: B7H3 Fabs, central CD3 Fv, terminal CD137 Fv; Flexible linker is (G4S)2

Target: T1, B7H3
Test: ELISA or FCM (Example 2)

Binder | binding result
B1 | binds
B2 | binds
B3 | binds
B4 | binds
